Laboratory results taken from PMC10397247.

Legend:
Assay in all cases: two-hybrid library CCNG1;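 also: natural log of median RNA to DNA barcode read ratio; higher means stronger binding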
4H850-bN = target: T1, 4H850-bN
T1 chain: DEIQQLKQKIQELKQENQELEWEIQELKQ

4H906-bN = target: T2, 4H906-bN
T2 chain: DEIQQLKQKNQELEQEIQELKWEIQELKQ

4H584-bN = target: T3, 4H584-bN
T3 chain: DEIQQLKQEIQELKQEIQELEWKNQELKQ

4H570-bN = target: T4, 4H570-bN
T4 chain: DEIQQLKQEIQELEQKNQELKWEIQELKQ

P7A = target: T5, P7A
T5 chain: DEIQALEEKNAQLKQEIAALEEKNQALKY

4H619-bN = target: T6, 4H619-bN
T6 chain: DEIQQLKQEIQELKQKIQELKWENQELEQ

O5-bH = target: T7, O5-bH
T7 chain: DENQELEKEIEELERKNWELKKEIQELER

O9-bH = target: T8, O9-bH
T8 chain: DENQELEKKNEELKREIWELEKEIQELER

O4-bH = target: T9, O4-bH
T9 chain: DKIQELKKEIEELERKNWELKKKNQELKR

O7-bH = target: T10, O7-bH
T10 chain: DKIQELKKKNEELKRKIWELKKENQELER

O6-bH = target: T11, O6-bH
T11 chain: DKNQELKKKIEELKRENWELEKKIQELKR

O8-bH = target: T12, O8-bH
T12 chain: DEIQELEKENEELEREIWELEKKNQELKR

P9A = target: T13, P9A
T13 chain: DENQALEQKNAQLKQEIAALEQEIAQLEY

P8A = target: T14, P8A
T14 chain: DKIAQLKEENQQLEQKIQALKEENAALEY

Row | interaction score (4H850-bN) | interaction score (4H906-bN) | interaction score (4H584-bN) | interaction score (4H570-bN) | interaction score (P7A) | interaction score (4H619-bN) | interaction score (O5-bH) | interaction score (O9-bH) | interaction score (O4-bH) | interaction score (O7-bH) | interaction score (O6-bH) | interaction score (O8-bH) | interaction score (P9A) | interaction score (P8A) | Binder
1 | 1.82 | -1.16 | 0.131 | 0.618 | -1.87 | -1.3 |  |  |  |  |  |  |  |  | DEIQQLKQEIQELEQKNQELKWEIQELKQ [4H570-bN]
2 |  |  |  |  |  |  | -1.47 | -2.1 | -1.04 | 0.376 | 0.0257 | 1.07 |  |  | DKIQELKKEIEELERKNWELKKKNQELKR [O4-bH]
3 |  |  |  |  | -0.598 |  |  |  |  |  |  |  | -0.697 | 2.24 | DEIQALEEKNAQLKQEIAALEEKNQALKY [P7A]
